Source: publication PMC8616027

What was measured:
[1] = tested on: HU (HU-1/HU-2, hupA + hupB co-expressed) (Escherichia coli); assay: EMSA; conditions: 10 min at 23 C, then 0.8% agarose gel electrophoresis, bound [3H]HU counted in gel slices; binding buffer composition, salt and pH not in the material …; scale: HU dimers bound per plasmid at saturation
[2] = tested on: HU (HU-1/HU-2, hupA + hupB co-expressed) (Escherichia coli); assay: competition; conditions: 10 min at 23 C, then 0.8% agarose gel electrophoresis, bound [3H]HU counted in gel slices; binding buffer composition, salt and pH not in the material …

Substance	binding signal [1]	binding signal (fold affinity over linear DNA) [2]	binding signal (fold affinity over relaxed DNA) [2]	binding signal (fold affinity over relaxed pRLM4) [2]
negatively supercoiled pRLM4 (sigma -0.06)	1000	20	> 10	2
linear pRLM4	1000			
